# B1: TPR t1 (parent)
# chain: GACCAAUCUGCCCUCAGAGCUCGAGAACAUCUUCGGAUGCAGAGGAGGCAGGCUUCGGUGGCGCGAUAGCGCCAACGUCCUCAACCUCCAAUGCAUCCCACCACAUGAUGAUGCCUGAAGAGCCUUGGUUUUUUG
# Variants of: B1
# Assay: polymerase ribozyme fitness, log enrichment relative to wild type (log ratio); higher = more active; in vitro selection for triplet polymerase activity
# Procedure, shortened: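 Frozen incubation at −7 °C formed the core of a single, triplicate in vitro selection round applied to PCR-built, transcribed mutant libraries of each subunit of a heterodimeric triplet polymerase ribozyme. Extended constructs were gel-excised, captured with streptavidin beads and amplified by RT-PCR, and input and output libraries were Illumina-sequenced with a filter of ≥10 input reads and ≥1 read per output. Fitness is the logarithm of genotype enrichment relative to wild-type enrichment, with inverse-variance-weighted replicate averaging, and the logarithm is base 2.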
row,Variant,polymerase ribozyme fitness (log ratio)
1,GAUCAAUCUGCCCUCAGAGCUCGAGAACAUCUUCGGAUGCAGAGGAGGCAGGCUCCGGUGGCGCGAUAGCGCCAACGUCCUCAACCUCUAAUGCAUCCCACCACAUGAUGAUGCUUGAAGAGCCUUGGUUUUUUG [C3U U55C C89U C115U],-3.75
2,GACAAAUCUGCCAUCAGAGCUCGAGAACAUCUUCGGAUGCAGAGGAGGCAGGCGUAGGUGGCGCGAUAGCGCCAACAUCCUCAACCUCCAAUGCAUCCCACCACAUGAUGAUGCCUGAAGAGCCUUGGUUUUUUG [C4A C13A U54G C56A G77A],-4.73
3,GACAAAUCUGCCCUCAGAGCUCGAGAACAUCUUCGGAUGUAGAGGAGGCAGGCUUCGGUGGCGCGAUAGCGCCAACGUCCUCAACCUCCAAUGCAUCCCACGACAUGAUGAUGCAUGAAGAGCCUUGGUUUUUUG [C4A C40U C102G C115A],-6.67
4,GACAAAUCUGCCUUCAGAGCUCGAGAACAUCUUCGGAUGCAGAGGAGGCAGGCUUCGGUGGCGCGAUAGCGCCAACGUCCUCAACCUCCAAUGCAUCCCAGCACAUGAUGAUGCCUGAAGAGCCUUGGUUUUUUG [C4A C13U C101G],-4.23
5,GAUCAAUCUGCCCUCAGAGCUCGAGAACAUCUUCGGAUGCAGAGGAGGCAGGCUUCGGCGGCGCGAUAGCGCCAACGUCCUCAACCUCCAAUGCAUCCCACCACAUGAUGGUGCCUGAAUAGCCUUGGUUUUUUG [C3U U59C A111G G120U],-2.84
6,GACAAAUCUGCCUUCAGAGCUCGAGAACAUCUUCGGAUGCAGAGGAGGCAGGCUUCGGUGGCCCGAUAGCGCCAACGUCCACAACCUCCAAUGCAUCCCACCACAUGAUGAUGCCUGAAGAGCCUUGGUUUUUUG [C4A C13U G63C U81A],-2.72
7,GACAAAUCUGCCCUCAGAGCUCGAGAACCUCUUCGGAUGCAGAGGAGGCAGGCUUCGGUGGCGCGAUAUCGCCAACGUCCUCAACCUCCAAUGCAUCCCACCACAUGAUAAUGCCUGAAAAGCCUUAGUUUUUUG [C4A A29C G69U G110A G120A G127A],-4.61
8,GACAAAUCUGGCCUCAGAGCUCGAGAACAUCUUCGGAUGCAGAGGAGGCAGGCUUCGGUAGCGCGAUAGCGCCAACGUCCUCAACCUCCAAUGCAUCCCACCACAUGAUGAUGGCUGAAGAGCCUUGGUUUUUUG [C4A C11G G60A C114G],-5.08
9,GACAAAUCUGCCCUCAGAGCUCGAGAACAUCUUCGGAUGCAGAGGAGGCAGGCUUCGGUGGCGCGAUAGGGCCAACGUCCUCAACCUCCAAUGCAUCCCACCACAUGAUGAUACCAGAAGAGCCUUGGUUUUUUG [C4A C70G G113A U116A],-6.73
10,GACAAAUCUGCCCUCAGAGCUCGAGAACAUCUUCGGAUGCAGAGGAGGCAGGCUUCGGUGGCGCGAUAGCGCCAACGUCCUCAAACUCCAAUGCAUCCCACCACAUGAUGAUGCCUGAAGAGCCUUGGUUUUUUG [C4A C85A],-2.93
11,GACAAAUCUGCCCUCAGAGCUCGAGAACUUCUUCGGAUGCAGAGGAGUCAGGCUUCGGUGGCGCGAUAGCUCCAACGUCCUCAACCUCCAAUGCAUCCCACCACAUGAGGAUGCCUGAAGAGCCUUGGUUUUUUG [C4A A29U G48U G71U U109G],-5.09
12,GACAAAUCUGCCCUCAGCGCUCGAGAACAUCUUCGGAUGCAGAGGAGGUAGGCUUCGGUGGCGCGAUAGCGCCAACGUCCUCAAUCUCCAAUGCAUCCCACCACAUGAUGAUGGCUGAAGAGCCUUGGUUUUUUG [C4A A18C C49U C85U C114G],-5.25
13,GACAAAUCUGCCCUCAGGGCUCGAGAACAUCUUCGGAUGCAGAGGAGGCAGGCUUCGGUGGCGCGAUAGCGCCAACGUCCUCAACCUCAAAUGCAUCCCCCCACAUGAUGAUACCUGAAGAGCUUUGGUUUUUUG [C4A A18G C89A A100C G113A C124U],-4.48
14,GACAAAUCUGCCCUCAGAGCUCGAGAACAUCUUCGGAUGUAGAGGAGGCAGGCUUCGGUGUCGCGAUAGCGCCAACGUCCUCAACCUCCAAUGCAUCCCACCACAUGAUGAUGCCUGAAGAGCCUUGGUUUUUUG [C4A C40U G61U],-1.92
15,GACAAAUCUGUCCUCAGAGCUCGAGAACAUCUUCGGAUGCAGAGGAGGCAGGCUUCGGUGGCGCGAUAUCGCCAACGUCCUCAACCUCCAAUGCAUGCCACCACAUGAUGAUGCCUGAAGAGCCUUGGUUUUUUG [C4A C11U G69U C97G],-3.61
16,GACAAAUCUGCCCUCAGAGCUCGAGAACAUCUUCGGAUGCAGAGGAGGCAGGCUUCGGUGGCGCGAUAGCGCCAACGUCCUCAACCUCCAUUGCAUCCCACCACAUGAUGAUGCCUGAAGAGCCUUGGUUUUUUG [C4A A91U],-3.65
17,GACAAAUCUGCCCUUAGAGCUCGAGAACAUCUUCGGAUGCAGAGGAGGCAAGCUUCGGUGGCGCGAUAGCGCCAACGUCCUGAACCUCCAAUGCAUCCCACCACAUGAUGAUGCCUGAAGAGUCUUGGUUUUUUG [C4A C15U G51A C82G C123U],-5.31
18,GACAAAUCUGCCCUCAGAGCUCGAGAACAUCUUCGGAUGCAGAGGCGGCAGGCUUCGGUGGCGUGAUAGCGCCAACGUCCUCAACCUCCAAUGCAUCCCACCACAUGAUGAUGACUGAAGAGCAUUGGUUGUUUG [C4A A46C C64U C114A C124A U131G],-3.27
19,GACAAAUCUGCCCUCAGAGCUCGAGAACAUCUUCGGAUGCAGAGGAGGCAGGCUUCGGUGGCGCGAUAGCGCCAACGUCCUCAACCUCCAAUGCAUCCCACCACAUGAUGAUGCCUGAUGAGCCUUGGUUUUUUG [C4A A119U],-1.66
20,GAUCAAUCUGCCCUCAGAGCUCGAGAACAUCUUCGGAUGCAGAGGAGGCAGGCUUCGGUGGCGCGAUAGCGCCAACGCCCUCAACCGCCAAUGCAUCCCACCACAUGAUGAUGCCUGAAGAGCCUUGGUUUUUUG [C3U U78C U87G],-0.313
21,GACAAAUCUGCCCUGAGAGCUCGAGAACAUCUUCGGAUGCAGAGGAUGCAGGCUUCGGUGGCGUGAUAGCGCCAACGUCCUCAACCUCCAAUGCAUCCCACCACAUGAUGAUGCGUGAUUAGCCUUGGUUUUUUU [C4A C15G G47U C64U C115G A119U G120U G135U],-7.19

# Source: the RNAGym collection of RNA variant scans (doi:10.1073/pnas.2313332121)
